Experimental data: patent US11795460B2, “Compositions and methods for TTR gene editing and treating ATTR amyloidosis” (Intellia Therapeutics, Inc., priority 2017, dated 2023)
Strand notation (5' to 3'): a small letter for the sugar, then the base; units joined by * are phosphorothioate-linked, units joined directly phosphodiester-linked; [ ] holds rarer units or linkages, { } end groups; capitals alone tell only the bases. m = 2'-O-methyl; r = 2'-OH (RNA)

Test system: mouse TTR
Assay: Serum mouse TTR ELISA in mice dosed with LNP formulations (Table 28)
Assay type: in vivo
Conditions: wild type CD-1 mice; 1, 0.3, 0.1, 0.03, or 0.01 mg/kg; FIG. 15B
Description: Blood was collected and the serum was isolated as indicated. The total mouse TTR serum levels were determined using a Mouse Prealbumin (Transthyretin) ELISA Kit (Aviva Systems Biology, Cat. OKIA00111); rat TTR serum levels were measured using a rat specific ELISA kit (Aviva Systems Biology catalog number OKIA00159); human TTR serum levels were measured using a human specific ELISA kit (Aviva Systems Biology catalog number OKIA00081); each according to manufacture's protocol. Briefly, sera were serial diluted with kit sample diluent to a final dilution of 10,000-fold, or 5,000-fold when measuring human TTR in mouse sera. […] The absorbance of the contents was measured on the Spectramax M5 plate reader with analysis using SoftmaxPro version 7.0 software. Serum TTR levels were quantitated off the standard curve using 4 parameter logistic fit and expressed as ug/mL of serum or percent knockdown relative control (vehicle treated) animals.
In separate experiments using wild type CD-1 mice, an LNP formulation comprising guide G000502, which is cross homologous between mouse and cyno, was tested in a dose response study. […] Liver editing results were determined using primers designed to amplify the region of interest for NGS analysis. […]

B1: G000502: TTR Cyno specific sgRNA modified sequence, SEQ ID No. 114; guide sequence of CR000689; cross homologous between mouse and cyno (nucleic acid)
guide: mA*mC*mA*rCrArArArUrArCrCrArGrUrCrCrArGrCrGrGrUrUrUrUrArGrAmGmCmUmAmGmAmAmAmUmAmGmCrArArGrUrUrArArArArUrArArGrGrCrUrArGrUrCrCrGrUrUrArUrCrAmAmCmUmUmGmAmAmAmAmAmGmUmGmGmCmAmCmCmGmAmGmUmCmGmGmUmGmCmU*mU*mU*mU
Serum mouse TTR levels, dose response: A dose response for both editing and serum TTR levels was evident
